Results: PMC3334931, “Characterization of the Single Stranded DNA Binding Protein SsbB Encoded in the Gonoccocal Genetic Island” (PLoS ONE, 2012)

Tests used:
[1] = biological target: T1, SsbB (native) (Neisseria gonorrhoeae MS11, UniProt Q5EP75 1-143); assay: EMSA; stoichiometric at 8 nM DNA; 1 tetramer per oligo; Cy3 raises affinity at least 10-fold; EMSA: SBA buffer (10 mM NaOH, 2 mM EDTA, boric acid to pH 7.5), optional 10 mM MgCl2 and/or NaCl up to 500 mM, 4 C 15 min; AFM: 20 mM Tris pH 7.5, 150 mM NaCl; conditions: protein: recombinant; tags: none; chain copies: 4; label: 5' Cy3
T1 sequence: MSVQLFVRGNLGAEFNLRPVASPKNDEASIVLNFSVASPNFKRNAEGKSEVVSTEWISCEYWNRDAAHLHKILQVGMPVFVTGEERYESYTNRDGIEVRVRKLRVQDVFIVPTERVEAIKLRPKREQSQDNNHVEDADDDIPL

[2] = biological target: T1, SsbB (native); assay: tryptophan fluorescence titration; biphasic; 1 oligo per tetramer high affinity, second much weaker; EMSA: SBA buffer (10 mM NaOH, 2 mM EDTA, boric acid to pH 7.5), optional 10 mM MgCl2 and/or NaCl up to 500 mM, 4 C 15 min; AFM: 20 mM Tris pH 7.5, 150 mM NaCl; conditions: protein: recombinant; tags: none; chain copies: 4
[3] = biological target: T1, SsbB (native); assay: EMSA; SBA buffer; (SsbB)4 concentration; one and two tetramer complexes; EMSA: SBA buffer (10 mM NaOH, 2 mM EDTA, boric acid to pH 7.5), optional 10 mM MgCl2 and/or NaCl up to 500 mM, 4 C 15 min; AFM: 20 mM Tris pH 7.5, 150 mM NaCl; conditions: protein: recombinant; tags: none; chain copies: 4; label: 5' 32P
[4] = biological target: T1, SsbB (native); assay: EMSA (Coomassie); 1 uM tetramer, 0.25 uM oligo; minimal frame for two tetramers; EMSA: SBA buffer (10 mM NaOH, 2 mM EDTA, boric acid to pH 7.5), optional 10 mM MgCl2 and/or NaCl up to 500 mM, 4 C 15 min; AFM: 20 mM Tris pH 7.5, 150 mM NaCl; conditions: protein: recombinant; tags: none; chain copies: 4
[5] = biological target: T1, SsbB (native); assay: EMSA (Coomassie); 1 uM tetramer, 5 uM oligo; minimal frame for one tetramer; EMSA: SBA buffer (10 mM NaOH, 2 mM EDTA, boric acid to pH 7.5), optional 10 mM MgCl2 and/or NaCl up to 500 mM, 4 C 15 min; AFM: 20 mM Tris pH 7.5, 150 mM NaCl; conditions: protein: recombinant; tags: none; chain copies: 4
[6] = biological target: the molecule itself; assay: SEC; gel filtration chromatography of the purified proteins; single peaks; data not shown

Binder | binding result [2] | stoichiometry N [6] | other results
TTTTTTTTTTTTTTTTTTTTTTTTTTTTTTTTTTT (ssDNA) [Cy3-dT35] | – | – | binding result [1]: binds
TTTTTTTTTTTTTTTTTTTTTTTTTTTTTTTTTTT (ssDNA) [dT35] | binds | – | –
32P-dT75 (ssDNA) DNA: TTTTTTTTTTTTTTTTTTTTTTTTTTTTTTTTTTTTTTTTTTTTTTTTTTTTTTTTTTTTTTTTTTTTTTTTTTT | – | – | Kd [3]: ~100 nM
dT70 (ssDNA) DNA: TTTTTTTTTTTTTTTTTTTTTTTTTTTTTTTTTTTTTTTTTTTTTTTTTTTTTTTTTTTTTTTTTTTTTT | – | – | binding result [4]: binds
TTTTTTTTTTTTTTTTTTTTTTTTTTTTTTTTTTTTTTTTTTTTT (ssDNA) [dT45] | binds | – | –
TTTTTTTTTTTTTTTTTTTTTTTTT (ssDNA) [dT25] | binds | – | –
TTTTTTTTTTTTTTT (ssDNA) [dT15] | – | – | binding result [5]: binds
native SsbB (single stranded DNA binding protein SsbB encoded in the Gonococcal Genetic Island of Neisseria gonorrhoeae) (natural protein, UniProt Q5EP75 1-143, looked up, expressed as the native (untagged) protein; also called WT; GGI SSB; source: E. coli C43 (DE3), purified (Hi-Trap Q, DNA-cellulose, Superdex SD200)) MSVQLFVRGNLGAEFNLRPVASPKNDEASIVLNFSVASPNFKRNAEGKSEVVSTEWISCEYWNRDAAHLHKILQVGMPVFVTGEERYESYTNRDGIEVRVRKLRVQDVFIVPTERVEAIKLRPKREQSQDNNHVEDADDDIPL | – | 4 | –
His-tagged SsbB (natural protein, Neisseria gonorrhoeae, UniProt Q5EP75 1-143, looked up, also called N- His- tagged SsbB; source: E. coli C43 (DE3), purified (Hi-Trap Chelating Ni, Hi-Trap Q, Superdex SD200); not shown: His tag, N-terminal, kept) MSVQLFVRGNLGAEFNLRPVASPKNDEASIVLNFSVASPNFKRNAEGKSEVVSTEWISCEYWNRDAAHLHKILQVGMPVFVTGEERYESYTNRDGIEVRVRKLRVQDVFIVPTERVEAIKLRPKREQSQDNNHVEDADDDIPL | – | 4 | –
OneSTrEP-tagged SsbB (natural protein, Neisseria gonorrhoeae, UniProt Q5EP75 1-143, looked up, source: E. coli C43 (DE3), purified (Strep-tactin Sepharose, Hi-Trap Q, Superdex SD200); not shown: OneSTrEP tag, N-terminal, kept) MSVQLFVRGNLGAEFNLRPVASPKNDEASIVLNFSVASPNFKRNAEGKSEVVSTEWISCEYWNRDAAHLHKILQVGMPVFVTGEERYESYTNRDGIEVRVRKLRVQDVFIVPTERVEAIKLRPKREQSQDNNHVEDADDDIPL | – | 4 | –
